From US20220064329A1 (Novo Nordisk, published 2022)
Positions count from the first letter of the chain named.

How the values were obtained:
[1] = biological target: T1, FVII(a) variant M391A (human, UniProt P08709 61-466); assay: SPR, Biacore T200, 25 C; FVII(a) variant captured on anti-Gla Ab 4F6, mAb0842(OA) injected
T1 construct: hFVII alanine variant in cell culture supernatant
T1 sequence: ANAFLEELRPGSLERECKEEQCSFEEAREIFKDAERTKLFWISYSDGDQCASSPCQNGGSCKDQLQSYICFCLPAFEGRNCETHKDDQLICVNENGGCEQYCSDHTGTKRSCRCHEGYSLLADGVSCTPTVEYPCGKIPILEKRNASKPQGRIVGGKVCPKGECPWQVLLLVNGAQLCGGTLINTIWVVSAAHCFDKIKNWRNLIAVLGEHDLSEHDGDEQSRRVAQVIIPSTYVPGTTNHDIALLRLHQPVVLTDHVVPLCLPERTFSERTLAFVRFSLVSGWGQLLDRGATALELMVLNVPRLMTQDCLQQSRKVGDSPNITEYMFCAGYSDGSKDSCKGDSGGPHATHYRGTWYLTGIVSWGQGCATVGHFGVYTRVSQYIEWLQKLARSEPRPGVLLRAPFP

[2] = biological target: T2, FVII(a) variant Y118A (human, UniProt P08709 61-466); assay: as above
T2 construct: hFVII alanine variant in cell culture supernatant
T2 sequence: T1 sequence with Y118A, A391M

Kd [1]: 0.25 nM
Kd [2]: 1.48 nM
B1: mAb0842(OA) (antibody, human IgG4 S228P, kappa)
heavy: QVQLQESGPGLVKPSQTLSLTCTVSGYSISSDSAWSWIRQPPGKGLEWIGYIQYSGSTNYNPSLKSRVTISRDTSKNQFSLKLSSVTAADTAVYYCARSVNYYGNSFAVGYWGQGTLVTVSSASTKGPSVFPLAPCSRSTSESTAALGCLVKDYFPEPVTVSWNSGALTSGVHTFPAVLQSSGLYSLSSVVTVPSSSLGTKTYTCNVDHKPSNTKVDKRVESKYGPPCPPCPAPEFLGGPSVFLFPPKPKDTLMISRTPEVTCVVVDVSQEDPEVQFNWYVDGVEVHNAKTKPREEQFNSTYRVVSVLTVLHQDWLNGKEYKCKVSNKGLPSSIEKTISKAKGQPREPQVYTLPPSQEEMTKNQVSLSCAVKGFYPSDIAVEWESNGQPENNYKTTPPVLDSDGSFFLVSRLTVDKSRWQEGNVFSCSVMHEALHNHYTQKSLSLSLGK
light: EIVLTQSPATLSLSPGERATLSCRASQGISDYLHWYQQKPGEAPRLLIKYTSQPATGIPARFSGSGSGTDFTLTISSLEPEDFAVYYCQNGHSFPLTFGQGTKLEIKRTVAAPSVFIFPPSDEQLKSGTASVVCLLNNFYPREAKVQWKVDNALQSGNSQESVTEQDSKDSTYSLSSTLTLSKADYEKHKVYACEVTHQGLSSPVTKSFNRGEC
chain: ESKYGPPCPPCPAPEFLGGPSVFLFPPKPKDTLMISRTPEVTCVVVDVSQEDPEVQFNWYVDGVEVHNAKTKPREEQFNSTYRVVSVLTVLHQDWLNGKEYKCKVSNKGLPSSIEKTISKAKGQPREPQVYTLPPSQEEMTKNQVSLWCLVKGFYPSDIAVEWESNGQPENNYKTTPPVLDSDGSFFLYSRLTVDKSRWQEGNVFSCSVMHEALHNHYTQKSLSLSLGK
notes: also called monovalent humanized 11F2 antibody; one-armed anti-FVII(a) antibody
